Reference: ChEMBL document CHEMBL1122571, “Design and synthesis of tetrahedral intermediate analogues as potential dihydroorotase inhibitors” (J Med Chem, 1984)

System: O=C1CC(C(=O)O)NC(=O)N1
Test: Compound was evaluated for the inhibition of dihydroorotase enzyme from mouse Ehrlich ascites at the concentration of 10 uM and at pH 7.37

With “Multifunctional protein CAD (Mus musculus), B2RQC6” as the substance, how does the Km read?
The Km was 4 µM.
